Patent publication US20250163121A1 (AKSTON BIOSCIENCES, published 2025)

These binders were tested against T1, human insulin receptor (on human IM-9 cells) (human, UniProt P06213 28-1382) (assay: competition with biotinylated RHI on human IM-9 cells, flow cytometry, 4 C).
T1 construct: whole, on cells; Endogenous receptor on IM-9 cells; the mature receptor is a processed alpha2-beta2 tetramer from one precursor; also called IR
Protocol: Biotinylated-RHI was diluted in FACS staining medium to a concentration of 1.25 μg/mL. 40 μL of the serially diluted test compound and 8 μL of 1.25 μg/mL Biotin-RHI were added into each well of a V bottom microtiter plate, mixed by slow vortexing, and placed on ice. 40 μL of an IM-9 cell suspension (8×10^6 cells/mL) was then added to each well by multichannel pipette, mixed again gently and incubated on ice for 30 min to allow competitive binding on the insulin receptor on IM-9 cells. Cells were then washed twice with 275 μL of ice-cold FACS wash buffer (HBSS/2 mM EDTA/0.1% Na-azide+0.5% horse serum) by centrifuging the V-bottom plate at 3000 rpm for 3 min and aspirating the supernatant. Cells were then resuspended in 40 μL of FACS staining medium containing 1:100 diluted Streptavidin-PE (Life Technologies) for 20 min on ice. Cells were then washed once with 275 μL of ice-cold FACS buffer and finally fixed with 3% paraformaldehyde for 10 min at room temp. Cells were then washed once with 275 μL of ice-cold FACS buffer and resuspended in 250 μl of FACS buffer for analysis.
The V-bottom plates containing cells were then analyzed on a Guava 8-HT flow cytometer (Millipore). Biotinylated-RHI binding to insulin receptor was quantitated by the median fluorescence intensity (MFI) of the cells on the FACS FL-2 channel for each concentration of the test compound. Control wells were labeled only with biotinylated-RHI and were used to calculate the percent (%) inhibition resulting from each test compound concentration. The % inhibition by test compounds of biotinylated-RHI binding on IM-9 cells was plotted against log concentrations of the test compound, and the resulting IC50 values were calculated using GraphPad Prism (GraphPad Software, La Jolla, CA) for the test compounds. Lower IC50 values of the test compound therefore indicate greater levels of biotinylated-RHI inhibition at lower concentrations indicating stronger binding of the insulin-Fc fusion protein to the insulin receptor. A control compound, such as unlabeled recombinant human insulin (RHI) was also used as an internal standard to generate an RHI IC50 against which a given compound IC50 could be ratioed (IC50(compound)/IC50(RHI)). Lower IC50 ratios have more similar binding to RHI (stronger binding to insulin receptor), while higher IC50 ratios have weaker binding to the insulin receptor relative to RHI.

T1 sequence (P06213 28-1382): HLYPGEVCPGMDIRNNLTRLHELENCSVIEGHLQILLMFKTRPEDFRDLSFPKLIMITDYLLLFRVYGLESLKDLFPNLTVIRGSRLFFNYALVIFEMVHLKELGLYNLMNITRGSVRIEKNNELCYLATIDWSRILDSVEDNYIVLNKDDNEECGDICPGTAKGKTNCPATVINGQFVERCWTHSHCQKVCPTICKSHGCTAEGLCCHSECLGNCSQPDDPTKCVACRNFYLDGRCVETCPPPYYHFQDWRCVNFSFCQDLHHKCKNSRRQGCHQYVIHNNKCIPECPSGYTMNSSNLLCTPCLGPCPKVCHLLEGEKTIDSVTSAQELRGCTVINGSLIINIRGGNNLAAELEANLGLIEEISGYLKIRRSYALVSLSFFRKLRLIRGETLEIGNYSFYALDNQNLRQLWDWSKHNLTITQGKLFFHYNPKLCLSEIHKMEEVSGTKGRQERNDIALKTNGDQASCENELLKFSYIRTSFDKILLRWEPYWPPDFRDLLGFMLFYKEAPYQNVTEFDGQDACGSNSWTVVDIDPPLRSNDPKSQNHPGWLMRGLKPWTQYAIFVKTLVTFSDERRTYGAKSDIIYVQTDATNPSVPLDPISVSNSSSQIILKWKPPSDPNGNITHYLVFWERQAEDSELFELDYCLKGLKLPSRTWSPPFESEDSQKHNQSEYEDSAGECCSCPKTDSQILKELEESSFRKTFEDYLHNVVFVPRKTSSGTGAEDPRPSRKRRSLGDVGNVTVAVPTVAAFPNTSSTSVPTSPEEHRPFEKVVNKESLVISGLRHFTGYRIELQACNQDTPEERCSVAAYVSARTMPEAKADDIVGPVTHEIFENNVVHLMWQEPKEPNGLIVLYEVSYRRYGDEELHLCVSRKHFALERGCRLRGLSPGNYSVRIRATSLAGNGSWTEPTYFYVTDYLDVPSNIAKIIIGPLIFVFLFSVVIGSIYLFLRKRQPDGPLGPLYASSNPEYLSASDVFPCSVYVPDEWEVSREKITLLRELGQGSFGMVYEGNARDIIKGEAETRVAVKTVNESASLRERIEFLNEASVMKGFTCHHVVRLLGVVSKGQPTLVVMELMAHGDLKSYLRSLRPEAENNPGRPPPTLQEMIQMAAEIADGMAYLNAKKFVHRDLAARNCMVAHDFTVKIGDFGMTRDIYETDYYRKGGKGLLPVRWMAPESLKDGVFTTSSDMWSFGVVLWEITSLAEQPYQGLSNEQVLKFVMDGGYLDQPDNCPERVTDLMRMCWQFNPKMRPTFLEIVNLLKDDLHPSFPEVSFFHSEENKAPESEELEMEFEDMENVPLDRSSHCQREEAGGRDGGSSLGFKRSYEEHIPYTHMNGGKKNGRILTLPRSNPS

Row | IC50 [nM] | Binder
1 | 147 | insulin-Fc fusion protein of SEQ ID NO: 31 (SEQ ID NO: 26 with des hinge D and the mutation cNg-NB138-K; canine IgGB Fc fragment SEQ ID NO: 16) (Fc fusion, Non-glycosylated homodimer made in HEK293 cells; 98.1% homodimer; also called cNg-K with des hinge D) FVNQHLCGSDLVEALALVCGERGFFYTDPTGGGPRRGIVEQCCHSICSLYQLENYCNGGGGAGGGGCPKCPAPEMLGGPSVFIFPPKPKDTLLIARTPEVTCVVVDLDPEDPEVQISWFVDGKQMQTAKTQPREEQFKGTYRVVSVLPIGHQDWLKGKQFTCKVNNKALPSPIERTISKARGQAHQPSVYVLPPSREELSKNTVSLTCLIKDFFPPDIDVEWQSNGQQEPESKYRTTPPQLDEDGSYFLYSKLSVDKSRWQRGDTFICAVMHEALHNHYTQESLSHSPG
2 | 28 | insulin-Fc fusion protein of SEQ ID NO: 26 (insulin polypeptide SEQ ID NO: 5, linker SEQ ID NO: 9, canine IgGB Fc fragment SEQ ID NO: 12) (Fc fusion, Disulfide-linked homodimer made in HEK293 cells; 93% homodimer) FVNQHLCGSDLVEALALVCGERGFFYTDPTGGGPRRGIVEQCCHSICSLYQLENYCNGGGGAGGGGDCPKCPAPEMLGGPSVFIFPPKPKDTLLIARTPEVTCVVVDLDPEDPEVQISWFVDGKQMQTAKTQPREEQFNGTYRVVSVLPIGHQDWLKGKQFTCKVNNKALPSPIERTISKARGQAHQPSVYVLPPSREELSKNTVSLTCLIKDFFPPDIDVEWQSNGQQEPESKYRTTPPQLDEDGSYFLYSKLSVDKSRWQRGDTFICAVMHEALHNHYTQESLSHSPG
3 | 145 | insulin-Fc fusion protein of SEQ ID NO: 29 (SEQ ID NO: 26 with the mutation cNg-NB139-S; canine IgGB Fc fragment SEQ ID NO: 15) (Fc fusion, Non-glycosylated homodimer made in HEK293 cells; 98.3% homodimer; also called cNg-S) FVNQHLCGSDLVEALALVCGERGFFYTDPTGGGPRRGIVEQCCHSICSLYQLENYCNGGGGAGGGGDCPKCPAPEMLGGPSVFIFPPKPKDTLLIARTPEVTCVVVDLDPEDPEVQISWFVDGKQMQTAKTQPREEQFSGTYRVVSVLPIGHQDWLKGKQFTCKVNNKALPSPIERTISKARGQAHQPSVYVLPPSREELSKNTVSLTCLIKDFFPPDIDVEWQSNGQQEPESKYRTTPPQLDEDGSYFLYSKLSVDKSRWQRGDTFICAVMHEALHNHYTQESLSHSPG
4 | 2730 | insulin-Fc fusion protein of SEQ ID NO: 22 (insulin polypeptide SEQ ID NO: 5, linker SEQ ID NO: 9, canine IgGA Fc fragment SEQ ID NO: 11) (Fc fusion, Disulfide-linked homodimer made in HEK293 cells) FVNQHLCGSDLVEALALVCGERGFFYTDPTGGGPRRGIVEQCCHSICSLYQLENYCNGGGGAGGGGRCTDTPPCPVPEPLGGPSVLIFPPKPKDILRITRTPEVTCVVLDLGREDPEVQISWFVDGKEVHTAKTQSREQQFNGTYRVVSVLPIEHQDWLTGKEFKCRVNHIDLPSPIERTISKARGRAHKPSVYVLPPSPKELSSSDTVSITCLIKDFYPPDIDVEWQSNGQQEPERKHRMTPPQLDEDGSYFLYSKLSVDKSRWQQGDPFTCAVMHETLQNHYTDLSLSHSPG
